The source of these data is publication PMC8058328 (Developmental cell, 2021).

This assay has as its target T1, GST-SH3BP4-HIS8x (human, UniProt Q9P0V3 1-963).
T1 sequence (looked up): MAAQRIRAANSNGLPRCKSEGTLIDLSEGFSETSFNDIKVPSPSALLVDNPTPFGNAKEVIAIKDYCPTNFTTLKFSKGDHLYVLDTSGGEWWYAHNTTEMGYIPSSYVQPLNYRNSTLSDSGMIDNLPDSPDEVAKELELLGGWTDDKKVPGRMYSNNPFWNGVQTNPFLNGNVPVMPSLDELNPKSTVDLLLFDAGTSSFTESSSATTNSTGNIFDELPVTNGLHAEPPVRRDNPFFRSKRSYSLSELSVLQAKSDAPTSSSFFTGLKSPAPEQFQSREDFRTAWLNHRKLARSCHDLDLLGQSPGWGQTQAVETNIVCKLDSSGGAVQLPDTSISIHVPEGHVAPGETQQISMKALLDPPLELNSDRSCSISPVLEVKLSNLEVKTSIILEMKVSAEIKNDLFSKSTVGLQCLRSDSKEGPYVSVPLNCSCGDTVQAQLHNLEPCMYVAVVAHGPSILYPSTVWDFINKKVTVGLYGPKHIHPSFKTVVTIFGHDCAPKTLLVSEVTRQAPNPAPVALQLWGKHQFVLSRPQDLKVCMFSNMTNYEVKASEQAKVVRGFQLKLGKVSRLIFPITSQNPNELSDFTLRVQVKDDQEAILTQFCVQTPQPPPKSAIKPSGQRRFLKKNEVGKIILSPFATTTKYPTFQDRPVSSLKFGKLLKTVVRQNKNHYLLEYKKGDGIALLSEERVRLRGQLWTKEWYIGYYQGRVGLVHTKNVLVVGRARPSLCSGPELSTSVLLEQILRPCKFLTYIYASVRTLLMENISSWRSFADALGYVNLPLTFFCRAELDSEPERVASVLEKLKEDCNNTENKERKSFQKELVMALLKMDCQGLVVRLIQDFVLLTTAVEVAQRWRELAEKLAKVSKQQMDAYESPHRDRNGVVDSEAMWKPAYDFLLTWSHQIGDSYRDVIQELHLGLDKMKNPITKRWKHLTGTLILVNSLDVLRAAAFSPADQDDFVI
Put plainly: pull-down.

B1: GIPC1-HIS8x (natural protein, human, UniProt O14908 1-333, looked up)
chain: MPLGLGRRKKAPPLVENEEAEPGRGGLGVGEPGPLGGGGSGGPQMGLPPPPPALRPRLVFHTQLAHGSPTGRIEGFTNVKELYGKIAEAFRLPTAEVMFCTLNTHKVDMDKLLGGQIGLEDFIFAHVKGQRKEVEVFKSEDALGLTITDNGAGYAFIKRIKEGSVIDHIHLISVGDMIEAINGQSLLGCRHYEVARLLKELPRGRTFTLKLTEPRKAFDMISQRSAGGRPGSGPQLGTGRGTLRLRSRGPATVEDLPSAFEEKAIEKVDDLLESYMGIRDTELAATMVELGKDKRNPDELAEALDERLGDFAFPDEFVFDVWGAIGDAKVGRY
With B1, the binding result was “binds”.
